Changes are numbered by the printed parent chain.
Columns and labels:
[1] = target: T1, interaction between PTP HSCF and PSTPIP (Mus musculus, UniProt P97814); settings: previous studies (Spencer et al. 1997); cited from earlier work
T1 construct: made in house; host or cells: GST fusion: E. coli DH5-alpha; PSTPIP: in vitro transcription/translation in rabbit reticulocyte lysate (Promega TnT)
T1 sequence (P97814 1-415): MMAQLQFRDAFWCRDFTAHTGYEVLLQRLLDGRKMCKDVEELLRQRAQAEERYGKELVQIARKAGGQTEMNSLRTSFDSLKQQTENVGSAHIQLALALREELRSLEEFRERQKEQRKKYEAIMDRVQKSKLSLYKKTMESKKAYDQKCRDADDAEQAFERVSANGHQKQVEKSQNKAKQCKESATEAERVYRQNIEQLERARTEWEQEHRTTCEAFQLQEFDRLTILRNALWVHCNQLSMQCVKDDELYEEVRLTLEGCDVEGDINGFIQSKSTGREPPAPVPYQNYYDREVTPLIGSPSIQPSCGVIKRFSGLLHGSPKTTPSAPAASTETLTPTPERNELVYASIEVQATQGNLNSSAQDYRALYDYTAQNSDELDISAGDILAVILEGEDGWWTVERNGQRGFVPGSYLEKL

[2] = target: T2, PST PIP missing 50 amino acids from the N-terminus (delta 50), C-terminal FLAG (murine, UniProt P97814 51-415); assay: GST-PTP HSCF pulldown of in vitro translated PST PIP deletion mutant
T2 construct: The 5' primer (N-coil.2, Glu51) carries ATGATG before the first PSTPIP codon
T2 sequence: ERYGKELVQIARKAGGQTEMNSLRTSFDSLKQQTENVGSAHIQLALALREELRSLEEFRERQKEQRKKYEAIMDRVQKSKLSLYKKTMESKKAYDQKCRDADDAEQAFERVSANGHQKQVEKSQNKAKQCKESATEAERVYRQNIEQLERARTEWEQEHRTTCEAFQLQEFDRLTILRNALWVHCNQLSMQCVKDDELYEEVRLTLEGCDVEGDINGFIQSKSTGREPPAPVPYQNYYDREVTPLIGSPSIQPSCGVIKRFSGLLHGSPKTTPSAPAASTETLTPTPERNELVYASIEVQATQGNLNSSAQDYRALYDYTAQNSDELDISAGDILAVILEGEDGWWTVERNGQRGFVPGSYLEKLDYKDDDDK
Description: (§1) FIG. 9. N Terminal Truncations Result in a Loss of PST PIP Binding to PTP HSCF. Full length PST PIP (Spencer et al., *J. Cell. Biol.*, 138(4):845–860 (1997)) and forms missing 25 (delta 25), 50 (delta 50) and 75 (delta 75) amino acids from the N-terminus were transcribed and translated in vitro. The upper panel illustrates immunoprecipitation of the proteins with an antibody directed against a PST PIP C-terminal FLAG epitope. The lower panel illustrates the same proteins precipitated with a GST fusion protein containing the C-terminal 149 amino acids of PTP HSCF (Cheng et al., *Oncogene* 13:2275–2279 (1996)) including the C-terminal proline rich binding site.
(§2) In vitro binding analyses between various PTP HSCF and PST PIP constructs were performed as previously described (Spencer et al, (1997), supra). Briefly, plasmids were transcribed and translated in vitro using the TnT Rabbit Reticulocyte Lysate System (Promega). Samples were diluted in 50 mM HEPES, pH 7.2, 1% triton X-100, 10% glycerol, 100 mM NaCl, and 2 µg/ml each of leupeptin, pepstatin, aprotinin and PMSF (lysis buffer). Samples were than reacted with GST fusion proteins at various concentrations, and the bound proteins were centrifuged using glutathione-sepharose beads and analyzed on SDS polyacrylamide gels. […]

[3] = target: T3, PST PIP missing 75 amino acids from the N-terminus (delta 75), C-terminal FLAG (murine, UniProt P97814 76-415); assay: as above
T3 construct: The 5' primer (N-coil.3, Ser76) carries ATGATG before the first PSTPIP codon
T3 sequence: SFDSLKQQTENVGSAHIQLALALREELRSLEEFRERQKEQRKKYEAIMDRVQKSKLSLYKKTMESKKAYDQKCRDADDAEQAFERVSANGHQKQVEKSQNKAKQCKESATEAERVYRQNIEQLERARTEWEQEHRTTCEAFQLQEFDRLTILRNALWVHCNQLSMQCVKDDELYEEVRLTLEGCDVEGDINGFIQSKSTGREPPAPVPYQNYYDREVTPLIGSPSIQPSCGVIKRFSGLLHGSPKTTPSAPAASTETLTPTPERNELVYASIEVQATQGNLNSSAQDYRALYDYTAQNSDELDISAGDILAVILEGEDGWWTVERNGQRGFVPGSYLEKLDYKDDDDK
Description: as §1, §2

[4] = target: T4, W232A mutant of PST PIP, C-terminal FLAG (murine, UniProt P97814 1-415); assay: GST-PTP HSCF pulldown of in vitro translated PST PIP mutant
T4 construct: In vitro translated or expressed in COS cells; also called W232A PST PIP; PST PIP with an alanine replacement mutation at tryptophan232
T4 sequence: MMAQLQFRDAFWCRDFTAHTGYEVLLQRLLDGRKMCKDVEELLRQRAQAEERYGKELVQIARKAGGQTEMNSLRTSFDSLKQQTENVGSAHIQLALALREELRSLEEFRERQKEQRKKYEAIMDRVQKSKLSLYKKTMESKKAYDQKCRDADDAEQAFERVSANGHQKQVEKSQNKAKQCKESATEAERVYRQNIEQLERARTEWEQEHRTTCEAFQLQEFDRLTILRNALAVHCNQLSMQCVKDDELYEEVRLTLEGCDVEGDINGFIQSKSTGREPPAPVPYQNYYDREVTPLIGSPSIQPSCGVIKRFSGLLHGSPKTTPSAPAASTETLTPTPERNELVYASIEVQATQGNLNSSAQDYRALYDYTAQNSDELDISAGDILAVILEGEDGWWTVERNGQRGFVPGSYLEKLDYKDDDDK
Method: as §2, with “gels. C-terminally-derived peptide inhibition studies were performed by incubating the GST fusion protein binding reactions in the presence of 10 µg/ml of the indicated peptides. Peptides were produced by FMOC-protected amino acids as previously described (Spencer et al, (1997), supra). In vivo interactions between various forms of PTP HSCF and PST PIP were also performed as previously described (Spencer et al, (1997), supra). Briefly, COS cells were transfected with various constructs, and after 48 hours, lysates were prepared and immunoprecipitated with antibodies to either the FLAG epitope contained at the C-terminus of PST PIP or an HA epitope contained at the N-terminus of PTP HSCF.” for “gels.”

[5] = target: T5, double mutant of PTP HSCF with both R444 and W450 mutated to alanine, HA tagged (UniProt Q61152 1-453); assay: anti-HA immunoprecipitation from co-transfected COS cells, blot with anti-PST PIP
T5 construct: range 1-453; also called R+W; R444+W450
T5 sequence (looked up): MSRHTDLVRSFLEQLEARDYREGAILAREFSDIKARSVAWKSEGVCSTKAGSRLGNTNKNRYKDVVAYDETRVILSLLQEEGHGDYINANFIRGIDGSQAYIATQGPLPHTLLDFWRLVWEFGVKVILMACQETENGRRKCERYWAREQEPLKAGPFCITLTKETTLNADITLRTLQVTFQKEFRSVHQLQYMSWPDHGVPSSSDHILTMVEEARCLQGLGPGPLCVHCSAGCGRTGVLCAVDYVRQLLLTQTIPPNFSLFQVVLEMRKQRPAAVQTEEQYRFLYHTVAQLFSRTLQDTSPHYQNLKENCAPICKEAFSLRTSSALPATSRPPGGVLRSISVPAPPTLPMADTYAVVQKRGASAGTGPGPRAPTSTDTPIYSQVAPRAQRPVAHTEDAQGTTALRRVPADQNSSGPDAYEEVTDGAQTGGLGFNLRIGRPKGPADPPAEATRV
Method: Multiple bands precipitated with the GST PST PIP fusion protein are apparently C-terminal proteolyzed products of the PTP. Also shown are GST PST PIP precipitations (10 μg/ml) performed on a double mutant of PTP HSCF (R+W) with both residues $R444$ and $W450$ mutated to alanine (bottom panel FIG. 14 A/2). B. COS cells were co-transfected with a 10:1 ratio of plasmids encoding hemagglutinin (HA) tagged PTP HSCF with the illustrated alanine substitutions or a mutant of PTP HSCF deleted for the C-terminal 24 amino acids (PTP $HSCFD24$) and wild type PST PIP with a C-terminal FLAG epitope tag, respectively. Transfected cell lysates were immunoprecipitated with anti-HA monoclonal antibodies and the precipitates were blotted with anti-PST PIP polyclonal antibody to detect the relative amounts of PST PIP complexed with either wild type or different mutant forms of PTP HSCF. […] Equal expression of PSTPIP was determined by immunoprecipitating lysates with anti-FLAG monoclonal antibody and blotting with anti-PST PIP polyclonal antibody.
In vitro binding analyses between various PTP HSCF and PST PIP constructs were performed as previously described (Spencer et al, (1997), supra). […] Samples were than reacted with GST fusion proteins at various concentrations, and the bound proteins were centrifuged using glutathione-sepharose beads and analyzed on SDS polyacrylamide gels. […]

GFGNRCGKPKGPRDPPSEWT [PXXP-PEST]
blocking of the PTP HSCF-PST PIP interaction by C-terminal peptides of related PTPs [1]: effectively block the interaction

GFGNRFSKPKGPRNPPSAW [PXXP-PEP]
blocking of the PTP HSCF-PST PIP interaction by C-terminal peptides of related PTPs [1]: effectively block the interaction

B1: GST-PST-rich+CTH PTP HSCF (GST fusion of PTP HSCF amino acids 304-453) (other, UniProt Q61152 304-453, looked up)
chain: QNLKENCAPICKEAFSLRTSSALPATSRPPGGVLRSISVPAPPTLPMADTYAVVQKRGASAGTGPGPRAPTSTDTPIYSQVAPRAQRPVAHTEDAQGTTALRRVPADQNSSGPDAYEEVTDGAQTGGLGFNLRIGRPKGPRDPPAEWTRV
notes: range 304-453; the methods give amino acids 304-453; also called GST-PTP HSCF; GST PTP HSCF; not shown: glutathione S-transferase encoded by pGEX-4T-2 (Pharmacia)
binding result [2]: no binding
binding result [3]: no binding
binding result [4]: no binding

B2: full-length PSTPIP tagged with the FLAG epitope at the C-terminus (other)
chain: T4 sequence with A232W
notes: In vitro transcribed/translated in rabbit reticulocyte lysate, or expressed in COS cells
binding result [5]: no binding
